Measurements: patent US20230250154A1 (CYTONICS, published 2023)

T1: ADAMTS4 (human, UniProt O75173 213-685, limits assumed)
T1 sequence (looked up): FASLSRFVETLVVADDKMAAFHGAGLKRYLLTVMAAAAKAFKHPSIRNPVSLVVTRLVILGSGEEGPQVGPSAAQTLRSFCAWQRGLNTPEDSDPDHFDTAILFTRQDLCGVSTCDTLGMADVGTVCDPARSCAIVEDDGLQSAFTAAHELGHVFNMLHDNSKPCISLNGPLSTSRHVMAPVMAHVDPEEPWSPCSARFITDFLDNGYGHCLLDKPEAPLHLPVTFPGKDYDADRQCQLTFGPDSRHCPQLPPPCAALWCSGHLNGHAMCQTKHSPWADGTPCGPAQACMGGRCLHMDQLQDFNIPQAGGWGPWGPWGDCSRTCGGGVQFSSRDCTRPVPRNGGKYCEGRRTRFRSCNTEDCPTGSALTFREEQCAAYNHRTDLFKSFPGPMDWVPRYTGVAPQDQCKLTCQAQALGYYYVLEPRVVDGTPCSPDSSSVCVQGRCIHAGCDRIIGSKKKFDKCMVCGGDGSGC

T2: ADAMTS5 (human, UniProt Q9UNA0 262-622, limits assumed)
T2 sequence (looked up): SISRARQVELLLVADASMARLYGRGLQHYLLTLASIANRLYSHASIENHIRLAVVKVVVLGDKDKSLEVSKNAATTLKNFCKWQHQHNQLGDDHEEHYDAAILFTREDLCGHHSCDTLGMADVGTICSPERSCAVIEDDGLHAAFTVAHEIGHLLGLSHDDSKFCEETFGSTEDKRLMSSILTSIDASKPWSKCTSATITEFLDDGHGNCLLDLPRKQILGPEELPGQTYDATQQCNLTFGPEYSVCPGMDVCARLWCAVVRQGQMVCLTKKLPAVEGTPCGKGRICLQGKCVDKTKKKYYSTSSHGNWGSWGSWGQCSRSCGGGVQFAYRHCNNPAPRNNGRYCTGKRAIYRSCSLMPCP

T3: MMP2 (human, UniProt P08253 110-660, limits assumed)
T3 sequence (looked up): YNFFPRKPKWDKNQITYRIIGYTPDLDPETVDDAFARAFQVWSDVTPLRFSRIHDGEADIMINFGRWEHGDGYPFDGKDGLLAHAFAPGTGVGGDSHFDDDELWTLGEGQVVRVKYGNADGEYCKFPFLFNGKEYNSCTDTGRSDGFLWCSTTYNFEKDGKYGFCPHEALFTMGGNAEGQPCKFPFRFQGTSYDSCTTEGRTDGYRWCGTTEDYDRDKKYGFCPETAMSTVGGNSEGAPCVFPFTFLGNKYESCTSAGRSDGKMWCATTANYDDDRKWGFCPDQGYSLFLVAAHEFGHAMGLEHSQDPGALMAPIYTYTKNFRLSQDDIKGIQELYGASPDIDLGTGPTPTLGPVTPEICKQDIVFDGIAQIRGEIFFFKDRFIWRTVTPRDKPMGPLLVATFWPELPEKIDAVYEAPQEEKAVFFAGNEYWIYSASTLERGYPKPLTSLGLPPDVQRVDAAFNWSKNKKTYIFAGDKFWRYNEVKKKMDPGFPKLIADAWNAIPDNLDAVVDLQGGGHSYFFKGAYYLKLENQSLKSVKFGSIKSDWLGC

T4: MMP1 (human, UniProt P03956 100-469, limits assumed)
T4 sequence (looked up): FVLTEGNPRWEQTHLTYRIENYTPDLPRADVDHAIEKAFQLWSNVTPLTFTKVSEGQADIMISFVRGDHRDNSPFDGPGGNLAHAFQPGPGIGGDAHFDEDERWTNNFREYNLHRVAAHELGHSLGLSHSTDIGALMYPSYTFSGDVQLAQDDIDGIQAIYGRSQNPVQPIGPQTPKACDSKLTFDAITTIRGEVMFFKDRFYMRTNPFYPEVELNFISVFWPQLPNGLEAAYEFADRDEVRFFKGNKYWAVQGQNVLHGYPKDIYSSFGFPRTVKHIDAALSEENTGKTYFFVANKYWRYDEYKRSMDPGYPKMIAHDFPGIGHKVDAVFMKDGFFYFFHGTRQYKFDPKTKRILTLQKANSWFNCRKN

T5: Cathepsin G (UniProt P08311 21-244)
T5 sequence (looked up): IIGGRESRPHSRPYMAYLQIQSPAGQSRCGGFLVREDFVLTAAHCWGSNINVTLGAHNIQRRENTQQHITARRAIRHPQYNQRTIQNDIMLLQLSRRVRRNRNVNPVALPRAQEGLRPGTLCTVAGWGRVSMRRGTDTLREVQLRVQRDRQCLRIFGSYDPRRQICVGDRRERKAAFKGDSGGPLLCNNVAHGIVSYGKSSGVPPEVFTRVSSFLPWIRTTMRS

B1: Variant A2M, bait region SEQ ID NO 132 (other)
chain: SVSGKPQYMVLVPSLLHTETTEKGCVLLSYLNETVTVSASLESVRGNRSLFTDLEAENDVLHCVAFAVPKSSSNEEVMFLTVQVKGPTQEFKKRTTVMVKNEDSLVFVQTDKSIYKPGQTVKFRVVSMDENFHPLNELIPLVYIQDPKGNRIAQWQSFQLEGGLKQFSFPLSSEPFQGSYKVVVQKKSGGRTEHPFTVEEFVLPKFEVQVTVPKIITILEEEMNVSVCGLYTYGKPVPGHVTVSICRKYSDASDCHGEDSQAFCEKFSGQLNSHGCFYQQVKTKVFQLKRKEYEMKLHTEAQIQEEGTVVELTGRQSSEITRTITKLSFVKVDSHFRQGIPFFGQVRLVDGKGVPIPNKVIFIRGNEANYYSNATTDEHGLVQFSINTTNVMGTSLTVRVNYKDRSPCYGYQWVSEEHEEAHHTAYLVFSPSKSFVHLEPMSHELPCGHTQTVQAHYILNGGTLLGLKKLSFYYLIMAKGGIVRTGTHGLLVKQEDMKGHFSISIPVKSDIAPVARLLIYAVLPTGDVIGDSAKYDVENCLANKVDLSFSPSQSLPASHAHLRVTAAPQSVCALRAVDQSVLLMKPDAELSASSVYNLLPEKDLTGFPGPLNDQDDEDCINRHNVYINGITYTPVSSTNEKDMYSFLEDMGLKAFTNSKIRKPKMCPQLEQYEMHGPEGEGEGEGIPENFFGVSELEGRGSSEDLVVQIVEEPHTKLRKYFPETWIWDLVVVNSAGVAEVGVTVPDTITEWKAGAFCLSEDAGLGISSTASLRAFQPFFVELTMPYSVIRGEAFTLKATVLNYLPKCIRVSVQLEASPAFLAVPVEKEQAPHCICANGRQTVSWAVTPKSLGNVNFTVSAEALESQELCGTEVPSVPEHGRKDTVIKPLLVEPEGLEKETTFNSLLCPSGGEVSEELSLKLPPNVVEESARASVSVLGDILGSAMQNTQNLLQMPYGCGEQNMVLFAPNIYVLDYLNETQQLTPEIKSKAIGYLNTGYQRQLNYKHYDGSYSTFGERYGRNQGNTWLTAFVLKTFAQARAYIFIDEAHITQALIWLSQRQKDNGCFRSSGSLLNNAIKGGVEDEVTLSAYITIALLEIPLTVTHPVVRNALFCLESAWKTAQEGDHGSHVYTKALLAYAFALAGNQDKRKEVLKSLNEEAVKKDNSVHWERPQKPKAPVGHFYEPQAPSAEVEMTSYVLLAYLTAQPAPTSEDLTSATNIVKWITKQQNAQGGFSSTQDTVVALHALSKYGAATFTRTGKAAQVTIQSSGTFSSKFQVDNNNRLLLQQVSLPELPGEYSMKVTGEGCVYLQTSLKYNILPEKEEFPFALGVQTLPQTCDEPKAHTSFQISLSVSYTGSRSASNMAIVDVKMVSGFIPLKPTVKMLERSNHVSRTEVSSNHVLIYLDKVSNQTLSLFFTVLQDVPVRDLKPAIVKVYDYYETDEFAIAEYNAPCSKDLGNADYKDDDDKGASHHHHHH
B2: Variant A2M, bait region SEQ ID NO 127 (other)
chain: SVSGKPQYMVLVPSLLHTETTEKGCVLLSYLNETVTVSASLESVRGNRSLFTDLEAENDVLHCVAFAVPKSSSNEEVMFLTVQVKGPTQEFKKRTTVMVKNEDSLVFVQTDKSIYKPGQTVKFRVVSMDENFHPLNELIPLVYIQDPKGNRIAQWQSFQLEGGLKQFSFPLSSEPFQGSYKVVVQKKSGGRTEHPFTVEEFVLPKFEVQVTVPKIITILEEEMNVSVCGLYTYGKPVPGHVTVSICRKYSDASDCHGEDSQAFCEKFSGQLNSHGCFYQQVKTKVFQLKRKEYEMKLHTEAQIQEEGTVVELTGRQSSEITRTITKLSFVKVDSHFRQGIPFFGQVRLVDGKGVPIPNKVIFIRGNEANYYSNATTDEHGLVQFSINTTNVMGTSLTVRVNYKDRSPCYGYQWVSEEHEEAHHTAYLVFSPSKSFVHLEPMSHELPCGHTQTVQAHYILNGGTLLGLKKLSFYYLIMAKGGIVRTGTHGLLVKQEDMKGHFSISIPVKSDIAPVARLLIYAVLPTGDVIGDSAKYDVENCLANKVDLSFSPSQSLPASHAHLRVTAAPQSVCALRAVDQSVLLMKPDAELSASSVYNLLPEKDLTGFPGPLNDQDDEDCINRHNVYINGITYTPVSSTNEKDMYSFLEDMGLKAFTNSKIRKPKMCPQLEQYEMHGPIPENFFGVSELEGRGSEAIPMSIPTEGEGEGEGVEEPHTKLRKYFPETWIWDLVVVNSAGVAEVGVTVPDTITEWKAGAFCLSEDAGLGISSTASLRAFQPFFVELTMPYSVIRGEAFTLKATVLNYLPKCIRVSVQLEASPAFLAVPVEKEQAPHCICANGRQTVSWAVTPKSLGNVNFTVSAEALESQELCGTEVPSVPEHGRKDTVIKPLLVEPEGLEKETTFNSLLCPSGGEVSEELSLKLPPNVVEESARASVSVLGDILGSAMQNTQNLLQMPYGCGEQNMVLFAPNIYVLDYLNETQQLTPEIKSKAIGYLNTGYQRQLNYKHYDGSYSTFGERYGRNQGNTWLTAFVLKTFAQARAYIFIDEAHITQALIWLSQRQKDNGCFRSSGSLLNNAIKGGVEDEVTLSAYITIALLEIPLTVTHPVVRNALFCLESAWKTAQEGDHGSHVYTKALLAYAFALAGNQDKRKEVLKSLNEEAVKKDNSVHWERPQKPKAPVGHFYEPQAPSAEVEMTSYVLLAYLTAQPAPTSEDLTSATNIVKWITKQQNAQGGFSSTQDTVVALHALSKYGAATFTRTGKAAQVTIQSSGTFSSKFQVDNNNRLLLQQVSLPELPGEYSMKVTGEGCVYLQTSLKYNILPEKEEFPFALGVQTLPQTCDEPKAHTSFQISLSVSYTGSRSASNMAIVDVKMVSGFIPLKPTVKMLERSNHVSRTEVSSNHVLIYLDKVSNQTLSLFFTVLQDVPVRDLKPAIVKVYDYYETDEFAIAEYNAPCSKDLGNADYKDDDDKGASHHHHHH

Key:
Experiment in all cases: cell-based or functional assay
[1] = target: MMP13 (human, UniProt P45452 104-471, limits assumed)
[2] = target: MMP12 (human, UniProt P39900 106-470, limits assumed)
[3] = target: T1, ADAMTS4
[4] = target: T2, ADAMTS5
[5] = target: MMP3 (human, UniProt P08254 100-477, limits assumed)
[6] = target: MMP8 (human, UniProt P22894 101-467, limits assumed)
[7] = target: T3, MMP2
[8] = target: T4, MMP1
[9] = target: MMP9 (human, UniProt P14780 107-707, limits assumed)
[10] = target: Elastase
[11] = target: chymotrypsin
[12] = target: bovine trypsin (bovine, UniProt P00760 24-246)
[13] = target: T5, Cathepsin G

Sequence of MMP12 (P39900 106-470 limits assumed): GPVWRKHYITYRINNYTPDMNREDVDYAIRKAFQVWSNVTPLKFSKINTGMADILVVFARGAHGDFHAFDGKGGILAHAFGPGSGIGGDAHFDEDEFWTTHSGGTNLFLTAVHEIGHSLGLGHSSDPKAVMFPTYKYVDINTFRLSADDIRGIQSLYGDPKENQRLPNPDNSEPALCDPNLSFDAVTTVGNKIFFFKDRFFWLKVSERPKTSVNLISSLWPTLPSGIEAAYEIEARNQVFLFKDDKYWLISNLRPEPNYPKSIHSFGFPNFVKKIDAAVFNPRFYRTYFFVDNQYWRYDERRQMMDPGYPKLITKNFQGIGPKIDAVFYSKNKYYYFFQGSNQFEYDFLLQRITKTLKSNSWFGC
Sequence of MMP3 (P08254 100-477 limits assumed): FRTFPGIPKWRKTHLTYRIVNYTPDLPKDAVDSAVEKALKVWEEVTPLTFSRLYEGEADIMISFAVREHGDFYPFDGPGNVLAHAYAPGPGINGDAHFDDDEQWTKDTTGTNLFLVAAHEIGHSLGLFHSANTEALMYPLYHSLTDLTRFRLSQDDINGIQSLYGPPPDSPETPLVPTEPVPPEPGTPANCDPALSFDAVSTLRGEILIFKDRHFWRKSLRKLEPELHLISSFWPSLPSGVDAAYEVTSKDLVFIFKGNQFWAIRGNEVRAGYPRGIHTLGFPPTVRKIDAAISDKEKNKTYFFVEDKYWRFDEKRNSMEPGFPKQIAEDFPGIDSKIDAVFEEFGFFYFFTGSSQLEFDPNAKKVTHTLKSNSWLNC
Sequence of MMP9 (P14780 107-707 limits assumed): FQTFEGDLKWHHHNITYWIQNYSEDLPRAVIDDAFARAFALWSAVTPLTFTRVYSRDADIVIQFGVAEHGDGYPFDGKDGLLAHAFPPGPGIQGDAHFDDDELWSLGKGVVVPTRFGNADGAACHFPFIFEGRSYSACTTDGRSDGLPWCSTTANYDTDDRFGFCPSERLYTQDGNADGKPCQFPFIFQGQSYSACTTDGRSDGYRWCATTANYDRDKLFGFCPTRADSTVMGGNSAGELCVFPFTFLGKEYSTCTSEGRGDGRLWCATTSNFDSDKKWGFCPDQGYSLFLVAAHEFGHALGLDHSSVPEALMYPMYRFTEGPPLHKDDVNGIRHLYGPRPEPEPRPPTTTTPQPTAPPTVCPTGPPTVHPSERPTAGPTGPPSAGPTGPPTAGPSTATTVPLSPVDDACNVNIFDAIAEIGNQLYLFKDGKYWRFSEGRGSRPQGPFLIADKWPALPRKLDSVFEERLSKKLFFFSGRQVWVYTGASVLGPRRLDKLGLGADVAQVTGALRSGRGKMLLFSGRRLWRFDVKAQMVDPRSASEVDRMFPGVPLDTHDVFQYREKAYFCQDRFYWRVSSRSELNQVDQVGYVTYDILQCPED
Sequence of bovine trypsin (P00760 24-246): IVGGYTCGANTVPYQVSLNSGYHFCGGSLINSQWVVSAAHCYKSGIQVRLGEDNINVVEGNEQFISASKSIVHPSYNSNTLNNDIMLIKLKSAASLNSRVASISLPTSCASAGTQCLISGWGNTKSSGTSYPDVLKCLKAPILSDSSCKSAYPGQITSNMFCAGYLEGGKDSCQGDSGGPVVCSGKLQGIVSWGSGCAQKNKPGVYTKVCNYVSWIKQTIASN
Sequence of MMP8 (P22894 101-467 limits assumed): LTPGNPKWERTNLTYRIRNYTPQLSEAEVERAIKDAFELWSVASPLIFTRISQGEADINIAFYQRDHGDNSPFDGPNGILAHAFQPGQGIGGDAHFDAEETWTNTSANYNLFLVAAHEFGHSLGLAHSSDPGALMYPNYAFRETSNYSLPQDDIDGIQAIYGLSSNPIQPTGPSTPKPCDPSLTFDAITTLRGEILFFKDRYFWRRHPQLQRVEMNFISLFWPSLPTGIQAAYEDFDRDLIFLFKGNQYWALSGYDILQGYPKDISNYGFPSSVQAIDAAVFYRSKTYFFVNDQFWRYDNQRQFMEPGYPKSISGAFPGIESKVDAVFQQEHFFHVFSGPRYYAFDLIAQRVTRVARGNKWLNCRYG

Row | Binder | Protease Inhibition (% of WT) [1] | Protease Inhibition (% of WT) [2] | Protease Inhibition (% of WT) [3] | Protease Inhibition (% of WT) [4] | Protease Inhibition (% of WT) [5] | Protease Inhibition (% of WT) [6] | Protease Inhibition (% of WT) [7] | Protease Inhibition (% of WT) [8] | Protease Inhibition (% of WT) [9] | Protease Inhibition (% of WT) [10] | Protease Inhibition (% of WT) [11] | Protease Inhibition (% of WT) [12] | Protease Inhibition (% of WT) [13]
1 | B1 | 117 % of WT | 136 % of WT | 86 % of WT | 185 % of WT | 100 % of WT | 161 % of WT | 67 % of WT | 388 % of WT | 500 % of WT | 300 % of WT | 10 % of WT | 20 % of WT | 437 % of WT
2 | B2 | 131 % of WT | 170 % of WT | 82 % of WT | 205 % of WT | 130 % of WT | 210 % of WT | 118 % of WT | 327 % of WT | 500 % of WT | 102 % of WT | 25 % of WT | 84 % of WT | 324 % of WT
